Assay results published in patent US8252303B2, “Injectable depot compositions and uses thereof” (Durect Corporation, priority 2002, dated 2012).

Assay: Preliminary stability of PDGF preformulations in the gel vehicle (SEC and rpHPLC)
Assay type: physicochemical
Details: 5° C. for 1 day, Bulk PDGF as reference
Experimental: All lyophilized protein formulations as listed in Tables 8 and 9, were mixed into a gel vehicle with the composition of PLGA RG502/Benzyl Benzoate (BB)/benzyl alcohol (BA) of 40/45/15 with the loading of the protein formulation about 10 wt %. After being stored at 5° C. for 1 day, the mixtures were extracted with an organic solvent mixture of methylene chloride and acetone (ratio of 50/50) as described in the example 15 above. The purity of the PDGF-BB was analyzed by both reverse phase HPLC (rpHPLC) and size exclusion chromatography (SEC). In general, no distinguishable degradation of the PDGF-BB was found in the PDGF-BB formulation incorporated with the excipients as described in the Example 18 and mixed with the gel vehicle of the present invention.

With “Bulk PDGF: PDGF-BB bulk solution, i.e., aqueous solution of PDGF in acetate buffer” the “% PDGF dimmer by SEC” value (Table 8 (succinate)) was 0.73%, the “% other peaks by rp-HPLC” value (Table 8 (succinate)) was 0.0% and the “% peak at RRT = 1.10 by rp-HPLC” value (Table 8 (succinate)) was 1.2%. The “% PDGF dimer by SEC” value (Table 9 (histidine)) was 0.73%, the “% other peaks by rp-HPLC” value (Table 9 (histidine)) was 0.0% and the “% peak at RRT = 1.10 by rp-HPLC” value (Table 9 (histidine)) was 1.2%.
